# Test results as given in US20230158109A1, “USE OF CD83 IN COMBINATION THERAPIES” (Colmmune, Inc., priority 2006, published 2023).
# “Also recorded” adds a separate entry of the source.
# B1: sCD83: recombinant extracellular domain of human CD83 cleaved from GST fusion, with four extra amino acids (Gly-Ser-Pro-Gly) at the amino terminal (protein, listed as Homo sapiens)
# chain: GSPGTPEVKVACSEDVDLPCTAPWDPQVPYTVSWVKLLEGGEERMETPQEDHLRGQHYHQKGQNGSFDAPNERPYSLKIRNTTSCNSGTYRCTLQDPDGQRNLSGKVILRVTGCPAQRKEETFKKYRAE
# modifications: printed: Gly-Ser-Pro-Gly; (1)..(125) Extracellular domain of human CD83
# notes: recombinant extracellular domain of human CD83 cleaved from GST fusion, with four extra amino acids (Gly-Ser-Pro-Gly) at the amino terminal
# Tests used:
# [1] = test system: C3H Hearts in C57BL/6 Recipients; test: Heterotopic heart transplantation, graft survival, C3H to C57BL/6
# Protocol: (§3) Hearts were removed from donor mice as indicated and transplanted into the peritoneal cavity of recipient mice (i.e., heterotopic transplantation). Recipient mice were treated as indicated, with some treatments beginning prior to transplantation. Survival of the allograft was monitored and scored as follows: “A,” beating strongly; “B,” mild decline in the intensity of pulsation; “C,” noticeable decline in the intensity of pulsation; “D,” complete cessation of cardiac impulses. Mean survival time of the transplanted tissue was determined for each treatment.
# In a further set of experiments, C3H mouse hearts were transplanted into the peritoneal cavity of C57BL/6 mice (results shown in Table 3 and FIG. 7). […] Other treatments included subtherapeutic doses of either anti-CD45RB monoclonal antibody (“mAb”) (i.e., 100 μg/mouse every day from days 0 through 14 by intravenous injection) or sirolimus (i.e., 2 mg/kg every day from days 0 through 14 by oral administration (“p.o.”)).
# [2] = test system: C3H Hearts in BALB/c Recipients; test: Heterotopic heart transplantation, graft survival, C3H to BALB/c; details: sCD83 100 μg i.p. daily day -1 to 28, sirolimus 2 mg/kg oral day 0-14, anti-CD45RB 100 μg i.v. day 0-14
# Protocol: as §3
# In a first set of experiments, C3H donor mice and BALB/c recipient mice were used. In this set of experiments, sCD83 treatment began on day −1 (i.e., the day prior to transplantation) and lasted until day 28; each day, 100 μg of sCD83 was administered to each mouse by intraperitoneal injection. Sirolimus treatment began on day 0 (i.e., the day of transplantation) and continued until day 14; each day, 2 mg/kg of sirolimus was administered orally to each mouse. Anti-CD45RB treatment began on day 0 and continued until day 14; each day, 100 μg of anti-CD45RB (BioExpress, Inc., West Lebanon, New Hampshire) was administered to each mouse intravenously.
# [3] = test system: C57BL/6 Hearts in BALB/c Recipients; test: Intra-abdominal heterotopic heart transplantation, graft survival, C57BL/6 to BALB/c; type: in vivo, mouse; details: sCD83 100 μg i.p. daily day -1 to 7, then every other day to day 28, tacrolimus 8 mg/kg/day oral, MMF 80 mg/kg/day oral
# Protocol: Treatment with tacrolimus was by daily oral administration of a subtherapeutic dose of 8 mg/kg/day, and treatment with MMF was by daily oral administration of a low dose of 80 mg/kg/day.
# In further experiments, transplant recipients were treated with a shorter course of administrations and a different route of administration.
# [4] = test system: T cells stimulated with allogeneic mature dendritic cells; test: Regulatory T cell generation by sCD83-treated allogeneic dendritic cells; type: cell-based, cynomolgous monkeys; details: DCs treated with sCD83 50 μg/ml; different DC:T ratios
# Protocol: Regulatory T cells were also prepared using dendritic cells prepared from cynomolgous monkeys, as follows. Cynomolgous monkey myeloid dendritic cells were generated from CD14^+ monocyte cells in the presence of GM-CSF and IL-4 for 7 days; soluble CD83 at 50 ug/ml was added to some cultures on days 3 through 7, and a maturation cocktail of IL-1(3, IL-6, TNF-α and PGE-2 was added on days 5 through 7. T cells (1×10^6/ml) were isolated by negative selection and stimulated at different ratios with the allogeneic mature dendritic cells that had been either treated or untreated with sCD83 (50 μg/ml). Cells were then stained to identify regulatory T cells (i.e. CD4^+CD25^+ Foxp3^+ cells) and analyzed by FACS.
# spleen cells = test: KLH re-stimulation assay, CD83 window of effectiveness; type: in vivo, CBA mice; details: sCD83 100 μg 10 times every second day; KLH after 11 days; spleen cells ten days later
# Protocol: Mice were evaluated to determine the period of time after administration of CD83 in which a subject would be tolerized to another administered antigen. Soluble CD83 (100 μg) was administered to CBA mice by injection 10 times every second day. After 11 days, treated animals were immunized with keyhole limpet hemocyanin (KLH, 10 μg). Ten days later, spleen cells were removed and re-stimulation assays were performed as described in International patent publication WO 2004/046182, the contents of which are incorporated by reference.
# [5] = test system: B cells of transplant recipient; test: Ex vivo proliferation of transplant recipient B-cells; design: species or system mouse; details: C3H heart in C57BL/6; sCD83 100 μg daily i.p.; B cells day 8, stimulated with LPS
# Protocol: Antibody Production Protocols for ex vivo Work: B cell proliferation: C57B1/6 mice were given a heterotopic cardiac allograft from a C3H mouse. Mice were then left untreated or were treated with a daily dose of 100 μg of sCD83 by intraperitoneal injection. Mice were then sacrificed on day 8, which was approximately the mean survival time of untreated mice. B-cells were then harvested from the mouse spleens and pure populations of 10^5 B-cells/well were cultured with 2 μg/mL of LPS to stimulate the cells (with no added sCD83). After 48 hours of culture, ^3H-thymidine was added, and after an additional 18-20 hours of culture, the cells were harvested and ^3H-thymidine incorporation was measured.
# (§1) Eight days after transplantation (when the transplant would typically be rejected in untreated mice), the mice were sacrificed. B cells were purified from recipient mice, cultured, and stimulated with LPS. ^3H-thymidine incorporation was measured as counts per minute (cpm).
# CD4+ T cells = test: Regulatory T cell generation from purified CD4+ T cells; type: cell-based, cynomolgus monkeys; details: CD4+ T cells stimulated for 6 days
# From the text: To evaluate the effect of sCD83 on CD4^+ T cells, these cells were purified from cynomolgus monkeys and then stimulated in the presence or absence of sCD83 or anti-CD28 mAb for 6 days. Cells were then stained to identify regulatory T cells (i.e., CD4^+CD25^+ Foxp3^+ cells) and analyzed by FACS.
# mDCs = test: TNF-α and activation markers in mDCs of PBMCs stimulated with LPS and IFN-γ; type: cell-based, cynomolgus monkeys; details: PBMCs incubated overnight with sCD83; LPS 1 μg/ml and IFN-γ 100 U/ml for 6 hours
# From the text: We wished to examine the in vitro functional properties of human sCD83 on peripheral blood DCs, monocytes, and T cells. Mature DCs (“mDCs”) from cynomolgus monkeys were identified using FACS with four-color staining as cells that were HLA-DR positive, lineage negative (i.e. CD3, CD20, CD14, and CD16 negative), and CD11c positive. Intracellular TNF-α, IL-6, and surface markers CD83, CD80, CD86, and CCR5 (which are increased in activated, mature DCs) were also monitored.
# (§2) To evaluate the effect of sCD83 on mDCs, isolated PBMCs (1×10^6 cells) from cynomolgus monkeys were incubated overnight with sCD83. Cells were stimulated with LPS (1 μg/ml) and IFN-γ (100 U/ml) for 6 hours. Intracellular TNF-α levels and surface markers were detected in mDCs using FACS. Results representative of one out of three experiments are shown in FIG. 11; results were expressed as % positive cells and mean fluorescence units (MFU).
# [6] = test system: B cells of transplant recipient; test: Ex vivo IgM and IgG production by transplant recipient B cells; design: species or system mouse; details: C3H heart in C57BL/6; sCD83 100 μg daily i.p.; B cells day 8, LPS, 72 hours
# Protocol: IgM & IgG production: C57B1/6 mice were given a heterotopic cardiac allograft from a C3H mouse. Mice then were left untreated or were treated with a daily dose of 100 μg of sCD83 by intraperitoneal injection. Mice were then sacrificed on day 8, which was approximately the mean survival time of untreated mice. B cells were harvested from the spleens of recipient mice and cultured at 2×10^6 B-cells/well with 20 ug/mL LPS (to induce antibody production, with no added sCD83). After 72 hours of culture, supernatants were harvested and IgM and IgG production measured by ELISA.
# as §1, with “After 72 hours of culture, supernatants were collected and IgM and IgG production” for “^3H-thymidine incorporation”, “using ELISA.” for “as counts per minute (cpm).”
# [7] = test system: mouse immunostimulatory dendritic cells and mouse T cells; test: Allogenic MLR assay with murine BM-DCs and T cells; type: cell-based
# Protocol: C57/BL6 mice and BALB/C mice (male or female; Charles River, Wiga, Sulzfeld, Germany) were used at the ages of between 1 and 4 months. Generation of bone-marrow-derived dendritic cells (“BM-DCs”) was performed as described in Lutz et al. (1999) J. Immunol. Meth. 223: 77. RPMI 1640 (Life Technologies, Karlsruhe, Germany) was supplemented with 100 U/ml penicillin (Sigma), 100 μg/ml streptomycin (Sigma), 2 mM L-glutamine (Sigma), […] (Sigma), and 10% heat-inactivated filtered FCS (PAA, Colbe, Germany). GM-CSF was used at 200 U/ml (PrepoTech/Tebu, Rocky Hill, N.J.) on days 0, 3, 6 and 8 of the incubation period.
# An allogenic MLR assay was performed as follows: CD4^+ and CD8^+ T cells were isolated from inguinal and […] lymph nodes of BALB/C mice and co-cultured (2×10^5 cells/well) for 3 days with BM-DCs (at different ratios) that had been processed through day 9 of the preparation protocol for BM-DCs. Culture was in 96-well culture dishes, and the media was 200 microliters RPMI 1640 supplemented with 100 U/ml penicillin, 100 µg/ml streptomycin, 2 mM L-glutamine, […], and 10% heat-inactivated filtered FCS. […] The culture supernatants were harvested onto glass fiber filters using an Inotech 1H-110 harvester (Inotech, Dottikon, Switzerland), and filters were counted in a Wallac 1450 microplate counter (Wallac, Turku, Finnland).
# [8] = test system: spleen cells (lymphocytes); test: KLH restimulation of spleen cells from sCD83-treated EAE mice; type: in vivo, mouse; details: sCD83 100 μg daily for ten days, KLH 28 days after last injection, spleen cells ten days later
# Protocol: In order to induce EAE, mice were immunized with a peptide derived from myelin oligodendrocyte glycoprotein (MOG), a constituent of the myelin sheath surrounding neurons of the central nervous system, and with pertussis toxin (see, e.g., Zinser et al. (2004) J. Exp. Med. 200: 345-351). Beginning ten days later, the mice were inoculated with soluble CD83 (100 μg) every day for ten days. 28 days after the last injection of soluble CD83, mice were injected subcutaneously with keyhole limpet hemocyanin (“KLH,” 10 μg/mouse). Ten days later, spleen cells were removed from the mice and restimulated with different doses of KLH. Lymphocyte proliferation in response to this stimulation was measured by [^3H]-thymidine incorporation.
# dendritic cells = details: soluble CD83 4 μg/ml in final maturation step, cited from earlier work
# monocytes = test: TNF-α and activation markers in monocytes of PBMCs; type: cell-based, cynomolgus monkeys; details: PBMCs incubated overnight with sCD83
# Protocol: as §2, with “monocytes,” for “mDCs,”, “sCD83 (1×10^6 cells).” for “sCD83. Cells were stimulated with LPS (1 μg/ml) and IFN-γ (100 U/ml) for 6 hours.”, “monocytes” for “mDCs”, “12;” for “11;”
# [9] = test system: donor-specific allo-antibody (IgM, IgG); test: Allo-antibody in transplant recipient sera (staining of donor splenocytes); type: in vivo, mouse; details: C3H heart in C57BL/6; sera eight days after transplantation
# Protocol: In these experiments, sera were collected from transplant recipients (from control-treated, sCD83-treated and treatment-naïve individuals). Splenocytes were removed from the transplant donor(s) and incubated with the transplant recipient sera. The binding of antibodies from the allo-anti sera to the surface of the transplant donor splenocytes was monitored selectively using antibodies specific for the Fc-fragments of mouse IgM and IgG. […] Stained cells can be analyzed using FACS.
# In the transplantation procedure, hearts were removed from C3H mice and transplanted into C57BL/6 mice, which were then either treated with sCD83 or left untreated. Sera were collected from the C57BL/6 transplant recipients eight days after transplantation (the approximate time when untreated mice would typically reject the transplant (i.e., show full tissue rejection)). This recipient sera was then used to stain splenocytes from the C3H donors, and allo-antibody binding was detected with FITC-conjugated antibodies specific to either the anti-IgG or anti-IgM Fc-fragment. […] Sera from untreated transplant recipients was also able to stain C3H-donor-derived splenocytes above control levels.
# [10] = sCD83 100 μg i.p. daily days 1-7 then q.o.d. days 8-16, sirolimus 2 mg/kg p.o. days 0-14, anti-CD45RB mAb 100 μg i.v. days 0-14
molecule,measurement,setting,value
"CO[C@H]1C[C@@H]2CC[C@@H](C)[C@@](O)(O2)C(=O)C(=O)N2CCCC[C@H]2C(=O)O[C@H]([C@H](C)C[C@@H]2CC[C@@H](O)[C@H](OC)C2)CC(=O)[C@H](C)/C=C(\C)[C@@H](O)[C@@H](OC)C(=O)[C@H](C)C[C@H](C)/C=C/C=C/C=C/1C [Sirolimus, sirolimus, reference compound]",MST,[1]; [10],16.7 ± 2.1 days
same,MST,[2],21.3 ± 6.2 days
"C=CC[C@@H]1/C=C(\C)C[C@H](C)C[C@H](OC)[C@H]2O[C@@](O)(C(=O)C(=O)N3CCCC[C@H]3C(=O)O[C@H](/C(C)=C/[C@@H]3CC[C@@H](O)[C@H](OC)C3)[C@H](C)[C@@H](O)CC1=O)[C@H](C)C[C@@H]2OC [Tacrolimus, tacrolimus, reference compound]",MST,[3],16.3 ± 1.0 days
B1,Regulatory T cells generated by dendritic cells,[4],increased numbers of regulatory T cells
same,Acute rejection / graft acceptance (in words),[1]; sCD83 100 μg,reduced symptoms of acute rejection
same,MST,[1]; [10],10.7 ± 1.5 days
same,MST,[1]; sCD83 266 ug,14.7 ± 0.6 days
same,MST,[1]; sCD83 400 ug,15 ± 1.0 days
same,Tolerization to KLH (re-stimulation assay),spleen cells,not tolerized to the antigen
same,Ex vivo B-cell proliferation (3H-thymidine incorporation),[5],suppresses
same,Generation of regulatory T cells (CD4+CD25+ Foxp3+ cells),CD4+ T cells,promoted the generation of regulatory T cells
same,MST,[2],10.0 ± 1.4 days
same,MST,[3],15.8 ± 1.0 days
same,In vitro production of TNF-α by mDCs,mDCs,suppressed
same,"Surface expression of mDC activation markers CD83, CD86, CCR5, and CD80",mDCs,suppressed
same,"Ex vivo antibody production (IgM and IgG, ELISA)",[6],suppresses
same,Cluster formation between dendritic cells and T cells,[7],inhibited
same,Ability of murine immunostimulatory dendritic cells to stimulate T cells,[7]; [3H]-thymidine,inhibited in a concentration-dependent manner
same,Lymphocyte proliferation in response to KLH ([3H]-thymidine incorporation),[8],"did not induce long-lasting, global immunosuppression"
same,CD14 positive cells,dendritic cells; compared with normally matured DCs,increase
same,Cell surface expression of CD80,dendritic cells; normally matured DCs 96%,66%
same,Cell surface expression of CD83,dendritic cells; normally matured DCs 96%,30%
same,In vitro production of TNF-α by monocytes,monocytes,moderately suppressed
same,Surface expression of monocyte activation markers,monocytes,moderately suppressed
same,Allo-antibody activity (donor-specific binding of IgM or IgG),[9],low allo-antibody activity; also recorded: can prevent the induction of an allo-antibody response
